This assay deals with the unphosphorylated T-PY motif (Smad2 or Smad3 peptide). Nature of the assay: ITC. (In general: ITC needs no label: the signal is the heat of the interaction.)

In turn, “recombinant Nedd4L WW2 domain (domain or fragment)” yielded a fold lower affinity than for the pT-PY motif peptide of 7 to 15 fold.

The values above are taken from PMC2796330.
